Measured values from article doi:10.1101/2025.03.14.643404 (2025).

How the values were obtained:
[1] = molecular target: T1, BCL6^BTB (residues 5-129; C8Q, C67R, C84N), tags cleaved (pSG219C) (human, UniProt P41182 5-129, C8Q | C67R | C84N); experiment: ITC; BCL6 binding to p300:TCIP3 binary complex (ternary, alpha 13)
[2] = molecular target: T1, BCL6^BTB (residues 5-129; C8Q, C67R, …); experiment: ITC; p300 binding to BCL6:TCIP3 binary complex (ternary, alpha 3.5)

B1: 6xHis-p300^BD (p300 bromodomain) (domain or fragment)
chain: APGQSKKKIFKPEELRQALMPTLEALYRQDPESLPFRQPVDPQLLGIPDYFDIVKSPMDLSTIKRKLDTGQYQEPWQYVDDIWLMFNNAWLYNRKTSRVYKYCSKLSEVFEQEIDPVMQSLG
Q: What does the source list for B1?
A: Kd [1]: 0.0198 µM; Kd [2]: 0.00237 µM
